To fix the notation:
B1: library; a variant is named by its letters at N, in order (parent)
chain: GAGACCGCAACTGAAAAGTTGTGGNNNNNATAGTGAGTCGCTGCCTGCAAAGACACAACT

± gives the standard deviation of the averaged measurements.

45 variants from the supplement of paper PMC10219994 can be followed below.

The variants in this data set derive from B1. The data set is described as follows: ligation selection enrichment (abundance after / before one-round selection) (fold); higher = more template-directed ligation activity. To be noted: with T7Psub CACGGAUGCUAAUACGACUCACUAUA; MgCl2 25 mM; 42 °C; 4 h; pH 8.5. On the procedure: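 Lib-N5 ligase ribozyme library: five randomized core nucleotides (including the GGA motif of N8-1) within the fixed N8-1 ribozyme flanks, transcribed by T7 RNA polymerase with a 5'-triphosphate. The library (0.75 uM) was reacted with substrate T7Psub (6 uM) in 50 mM EPPS pH 8.5 with 25 mM MgCl2 at 42 C for 4 h. Ligated products were PAGE-purified, reverse transcribed and MiSeq sequenced; enrichment = abundance after selection / abundance before selection, with two independent replicates. The full transcript is built from the printed template flanks.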
With GAGACCGCAACTGAAAAGTTGTGGAAAGAATAGTGAGTCGCTGCCTGCAAAGACACAACT, the ligation selection enrichment is 0.256 ± 0.0097.

On to GAGACCGCAACTGAAAAGTTGTGGAAAGCATAGTGAGTCGCTGCCTGCAAAGACACAACT, for which the ligation selection enrichment was determined as 0.199 ± 0.038.

For the variant GAGACCGCAACTGAAAAGTTGTGGAAAGGATAGTGAGTCGCTGCCTGCAAAGACACAACT, the ligation selection enrichment is 0.44 ± 0.026.

For the variant GAGACCGCAACTGAAAAGTTGTGGCACAGATAGTGAGTCGCTGCCTGCAAAGACACAACT, the ligation selection enrichment came to 0.134 ± 0.035.

With GAGACCGCAACTGAAAAGTTGTGGCACATATAGTGAGTCGCTGCCTGCAAAGACACAACT, the ligation selection enrichment came to 1.16 ± 0.21.

As for GAGACCGCAACTGAAAAGTTGTGGCACAAATAGTGAGTCGCTGCCTGCAAAGACACAACT, the ligation selection enrichment came to 0.132 ± 0.055.

On to GAGACCGCAACTGAAAAGTTGTGGCACACATAGTGAGTCGCTGCCTGCAAAGACACAACT, for which the ligation selection enrichment came out at 0.168 ± 0.031.

For GAGACCGCAACTGAAAAGTTGTGGTACCCATAGTGAGTCGCTGCCTGCAAAGACACAACT, the ligation selection enrichment is 0.202 ± 0.003.

As to GAGACCGCAACTGAAAAGTTGTGGTACCAATAGTGAGTCGCTGCCTGCAAAGACACAACT, the ligation selection enrichment worked out at 0.184 ± 0.011.

Take GAGACCGCAACTGAAAAGTTGTGGGAACGATAGTGAGTCGCTGCCTGCAAAGACACAACT: the ligation selection enrichment was determined as 0.626 ± 0.017.

GAGACCGCAACTGAAAAGTTGTGGGAACAATAGTGAGTCGCTGCCTGCAAAGACACAACT: the ligation selection enrichment came to 0.191 ± 0.024.

For GAGACCGCAACTGAAAAGTTGTGGGAACCATAGTGAGTCGCTGCCTGCAAAGACACAACT, the ligation selection enrichment was 0.225 ± 0.032.

Turning to GAGACCGCAACTGAAAAGTTGTGGGAACTATAGTGAGTCGCTGCCTGCAAAGACACAACT, the ligation selection enrichment is 0.882 ± 0.31.

Regarding GAGACCGCAACTGAAAAGTTGTGGAACAAATAGTGAGTCGCTGCCTGCAAAGACACAACT, the ligation selection enrichment turned out to be 0.209 ± 0.018.

Regarding GAGACCGCAACTGAAAAGTTGTGGAACACATAGTGAGTCGCTGCCTGCAAAGACACAACT, the ligation selection enrichment was found to be 0.159 ± 0.016.

As for GAGACCGCAACTGAAAAGTTGTGGAACATATAGTGAGTCGCTGCCTGCAAAGACACAACT, the ligation selection enrichment was found to be 0.729 ± 0.14.

For the variant GAGACCGCAACTGAAAAGTTGTGGAACAGATAGTGAGTCGCTGCCTGCAAAGACACAACT, the ligation selection enrichment amounted to 0.2191 ± 0.00078.

Regarding GAGACCGCAACTGAAAAGTTGTGGTAACCATAGTGAGTCGCTGCCTGCAAAGACACAACT, the ligation selection enrichment was found to be 0.173 ± 0.011.

For GAGACCGCAACTGAAAAGTTGTGGTAACTATAGTGAGTCGCTGCCTGCAAAGACACAACT, the ligation selection enrichment was determined as 0.925 ± 0.31.

As for GAGACCGCAACTGAAAAGTTGTGGTAACGATAGTGAGTCGCTGCCTGCAAAGACACAACT, the ligation selection enrichment is 0.8672 ± 0.0053.

With GAGACCGCAACTGAAAAGTTGTGGTAACAATAGTGAGTCGCTGCCTGCAAAGACACAACT, the ligation selection enrichment was found to be 0.186 ± 0.043.

GAGACCGCAACTGAAAAGTTGTGGGAAATATAGTGAGTCGCTGCCTGCAAAGACACAACT: the ligation selection enrichment was found to be 0.55 ± 0.2.

Consider GAGACCGCAACTGAAAAGTTGTGGGAAACATAGTGAGTCGCTGCCTGCAAAGACACAACT, for which the ligation selection enrichment was 0.146 ± 0.044.

As for GAGACCGCAACTGAAAAGTTGTGGGAAAAATAGTGAGTCGCTGCCTGCAAAGACACAACT, the ligation selection enrichment worked out at 0.135 ± 0.02.

As to GAGACCGCAACTGAAAAGTTGTGGGAAAGATAGTGAGTCGCTGCCTGCAAAGACACAACT, the ligation selection enrichment is 0.328 ± 0.021.

For GAGACCGCAACTGAAAAGTTGTGGAAATAATAGTGAGTCGCTGCCTGCAAAGACACAACT, the ligation selection enrichment is 0.18 ± 0.034.

Turning to GAGACCGCAACTGAAAAGTTGTGGAAATGATAGTGAGTCGCTGCCTGCAAAGACACAACT, the ligation selection enrichment stood at 0.495 ± 0.067.

For GAGACCGCAACTGAAAAGTTGTGGAAATTATAGTGAGTCGCTGCCTGCAAAGACACAACT, the ligation selection enrichment stood at 0.446 ± 0.12.

For the variant GAGACCGCAACTGAAAAGTTGTGGAAATCATAGTGAGTCGCTGCCTGCAAAGACACAACT, the ligation selection enrichment is 0.171 ± 0.01.

With GAGACCGCAACTGAAAAGTTGTGGCAATCATAGTGAGTCGCTGCCTGCAAAGACACAACT, the ligation selection enrichment was 0.136 ± 0.047.

For the variant GAGACCGCAACTGAAAAGTTGTGGCAATTATAGTGAGTCGCTGCCTGCAAAGACACAACT, the ligation selection enrichment was 0.343 ± 0.11.

With GAGACCGCAACTGAAAAGTTGTGGCAATAATAGTGAGTCGCTGCCTGCAAAGACACAACT, the ligation selection enrichment was found to be 0.143 ± 0.036.

Regarding GAGACCGCAACTGAAAAGTTGTGGCAATGATAGTGAGTCGCTGCCTGCAAAGACACAACT, the ligation selection enrichment is 0.249 ± 0.03.

In the case of GAGACCGCAACTGAAAAGTTGTGGAACCCATAGTGAGTCGCTGCCTGCAAAGACACAACT, the ligation selection enrichment amounted to 0.21 ± 0.032.

Take GAGACCGCAACTGAAAAGTTGTGGAACCAATAGTGAGTCGCTGCCTGCAAAGACACAACT: the ligation selection enrichment was found to be 0.1955 ± 0.00066.

As to GAGACCGCAACTGAAAAGTTGTGGCACCCATAGTGAGTCGCTGCCTGCAAAGACACAACT, the ligation selection enrichment is 0.15 ± 0.0098.

Consider GAGACCGCAACTGAAAAGTTGTGGCACCAATAGTGAGTCGCTGCCTGCAAAGACACAACT, for which the ligation selection enrichment worked out at 0.112 ± 0.018.

As for GAGACCGCAACTGAAAAGTTGTGGTAAAAATAGTGAGTCGCTGCCTGCAAAGACACAACT, the ligation selection enrichment was determined as 0.145 ± 0.025.

Turning to GAGACCGCAACTGAAAAGTTGTGGTAAACATAGTGAGTCGCTGCCTGCAAAGACACAACT, the ligation selection enrichment is 0.176 ± 0.054.

As to GAGACCGCAACTGAAAAGTTGTGGTAAAGATAGTGAGTCGCTGCCTGCAAAGACACAACT, the ligation selection enrichment stood at 0.553 ± 0.13.

For GAGACCGCAACTGAAAAGTTGTGGTAAATATAGTGAGTCGCTGCCTGCAAAGACACAACT, the ligation selection enrichment worked out at 0.784 ± 0.063.

On to GAGACCGCAACTGAAAAGTTGTGGGACACATAGTGAGTCGCTGCCTGCAAAGACACAACT, for which the ligation selection enrichment came out at 0.176 ± 0.0093.

With GAGACCGCAACTGAAAAGTTGTGGGACAAATAGTGAGTCGCTGCCTGCAAAGACACAACT, the ligation selection enrichment was 0.256 ± 0.04.

In the case of GAGACCGCAACTGAAAAGTTGTGGGACAGATAGTGAGTCGCTGCCTGCAAAGACACAACT, the ligation selection enrichment was 0.419 ± 0.07.

For GAGACCGCAACTGAAAAGTTGTGGGACATATAGTGAGTCGCTGCCTGCAAAGACACAACT, the ligation selection enrichment is 0.499 ± 0.025.
